Non-standard residues stand in square brackets, D forms with d. No end group written: not given here. *: point of attachment. GuAmb = 4-guanidinomethylbenzoyl, N=C(N)NCc1ccc(C(=O)*)cc1; Phe(4-F) = N[C@@H](Cc1ccc(F)cc1)C(=O)O; Cyclohexanecarbonyl = O=C(C1CCCCC1)*; Arg(Me) = CNC(=N)NCCC[C@H](N)C(=O)O; 4Pal = N[C@@H](Cc1ccncc1)C(=O)O; d3Pal = N[C@H](Cc1cccnc1)C(=O)O; d4Pal = N[C@H](Cc1ccncc1)C(=O)O; Cha = N[C@@H](CC1CCCCC1)C(=O)O; amidino = N=C(N)*; azaGly = NNC(=O)O
B1: des(1-2)-[AzaGly7,Arg(Me)9]MS10 (peptide)
peptide: WNSF[azaGly]LR(Me)F-NH2
modifications: N-terminus assumed
SMILES: CNC(=N)NCCC[C@H](NC(=O)[C@H](CC(C)C)NC(=O)NNC(=O)[C@H](Cc1ccccc1)NC(=O)[C@H](CO)NC(=O)[C@H](CC(N)=O)NC(=O)[C@@H](N)Cc1c[nH]c2ccccc12)C(=O)N[C@@H](Cc1ccccc1)C(N)=O
notes: also called Compound No. 271
B2: [D-Pya(3)1,AzaGly7,Arg(Me)9]MS10 (peptide)
peptide: [d3Pal]NWNSF[azaGly]L[Arg(Me)]F-NH2
modifications: N-terminus assumed
SMILES: CNC(=N)NCCC[C@H](NC(=O)[C@H](CC(C)C)NC(=O)NNC(=O)[C@H](Cc1ccccc1)NC(=O)[C@H](CO)NC(=O)[C@H](CC(N)=O)NC(=O)[C@H](Cc1c[nH]c2ccccc12)NC(=O)[C@H](CC(N)=O)NC(=O)[C@H](N)Cc1cccnc1)C(=O)N[C@@H](Cc1ccccc1)C(N)=O
notes: also called Compound No. 258
B3: [D-Asn2,Pya(4)3,AzaGly7,Arg(Me)9]MS10 (peptide)
peptide: Y[dN][4Pal]NSF[azaGly]L[Arg(Me)]F-NH2
notes: also called Compound No. 304
B4: [D-Tyr1,D-Pya(4)3,AzaGly7,Arg(Me)9]MS10 (peptide)
peptide: [dY]N[d4Pal]NSF[azaGly]L[Arg(Me)]F-NH2
notes: also called Compound No. 302
B5: des(1-5)-GuAmb-[AzaGly7,Arg(Me)9]MS10 (peptide)
peptide: GuAmb-F[azaGly]L[Arg(Me)]F-NH2
SMILES: CNC(=N)NCCC[C@H](NC(=O)[C@H](CC(C)C)NC(=O)NNC(=O)[C@H](Cc1ccccc1)NC(=O)c1ccc(CNC(=N)N)cc1)C(=O)N[C@@H](Cc1ccccc1)C(N)=O
B6: Endo-Phe5a-[D-Tyr1,Phe3,AzaGly7,Arg(Me)9]MS10 (peptide)
peptide: [dY]NFNSFF[azaGly]L[Arg(Me)]F-NH2
modifications: N-terminus assumed
SMILES: CNC(=N)NCCC[C@H](NC(=O)[C@H](CC(C)C)NC(=O)NNC(=O)[C@H](Cc1ccccc1)NC(=O)[C@H](Cc1ccccc1)NC(=O)[C@H](CO)NC(=O)[C@H](CC(N)=O)NC(=O)[C@H](Cc1ccccc1)NC(=O)[C@H](CC(N)=O)NC(=O)[C@H](N)Cc1ccc(O)cc1)C(=O)N[C@@H](Cc1ccccc1)C(N)=O
notes: printed in three-letter code: D-Tyr-Asn-Phe-Asn-Ser-Phe-Phe-AzaGly-Leu-Arg(Me)-Phe-NH2; also called Compound No. 270
B7: des(1)-[D-Tyr2,Ile3,AzaGly7,Arg(Me)9]MS10 (peptide)
peptide: [dY]INSF[azaGly]L[Arg(Me)]F-NH2
notes: also called Compound No. 240
B8: des(1)-[D-Tyr2,Ser3,AzaGly7,Arg(Me)9]MS10 (peptide)
peptide: [dY]SNSF[azaGly]L[Arg(Me)]F-NH2
notes: also called Compound No. 239
B9: des(1-2)-Amidino-[AzaGly7,Arg(Me)9]MS10 (peptide)
peptide: amidino-WNSF[azaGly]L[Arg(Me)]F-NH2
SMILES: CNC(=N)NCCC[C@H](NC(=O)[C@H](CC(C)C)NC(=O)NNC(=O)[C@H](Cc1ccccc1)NC(=O)[C@H](CO)NC(=O)[C@H](CC(N)=O)NC(=O)[C@H](Cc1c[nH]c2ccccc12)NC(=N)N)C(=O)N[C@@H](Cc1ccccc1)C(N)=O
notes: also called Compound No. 273
B10: des(1-3)-4-Imidazoleacetyl-[AzaGly7,Arg(Me)9]MS10 (peptide)
peptide: {4‑imidazoleacetyl}-NSF[azaGly]L[Arg(Me)]F-NH2
notes: also called Compound No. 323
B11: [D-Pya(4)1,D-Asn2,Cha3,AzaGly7,Arg(Me)9]MS10 (peptide)
peptide: [d4Pal][dN][Cha]NSF[azaGly]L[Arg(Me)]F-NH2
modifications: N-terminus assumed
SMILES: CNC(=N)NCCC[C@H](NC(=O)[C@H](CC(C)C)NC(=O)NNC(=O)[C@H](Cc1ccccc1)NC(=O)[C@H](CO)NC(=O)[C@H](CC(N)=O)NC(=O)[C@H](CC1CCCCC1)NC(=O)[C@@H](CC(N)=O)NC(=O)[C@H](N)Cc1ccncc1)C(=O)N[C@@H](Cc1ccccc1)C(N)=O
notes: also called Compound No. 306
B12: des(1-3)-n-Hexanoyl-[AzaGly7,Arg(Me)9]MS10 (peptide)
peptide: {n‑hexanoyl}-NSF[azaGly]L[Arg(Me)]F-NH2
notes: also called Compound No. 277
B13: [6Ψ7,CH2NH,D-Tyr1,Arg(Me)9]MS10 (peptide)
peptide: [dY]NWNSFGL[Arg(Me)]F-NH2
modifications: also: bond 6-7 CONH replaced by CH2NH
notes: also called Compound No. 308
B14: [D-Asn2]MS10 (peptide)
peptide: Y[dN]WNSFGLRF-NH2
B15: [D-Tyr1,AzaGly7,Arg(Me)9,Phe(4F)10]MS10 (peptide)
peptide: [dY]NWNSF[azaGly]L[Arg(Me)][Phe(4-F)]-NH2
notes: also called Compound No. 318
B16: des(1-3)-Cyclohexanecarbonyl-[AzaGly7,Arg(Me)9]MS10 (peptide)
peptide: Cyclohexanecarbonyl-NSF[azaGly]L[Arg(Me)]F-NH2
notes: also called Compound No. 278
B17: [Arg(Me)9]MS10 (peptide)
peptide: YNWNSFGL[Arg(Me)]F-NH2
notes: also called Compound No. 82
B18: des(1-3)-4-(3-Indolyl)butyryl-[AzaGly7,Arg(Me)9]MS10 (peptide)
peptide: {4‑(3-indolyl)butyryl}-NSF[azaGly]L[Arg(Me)]F-NH2
notes: also called Compound No. 267
B19: [10Ψ,CSNH,D-Tyr1]MS10 (peptide)
peptide: [dY]NWNSFGLRF
modifications: not fully specified (C-terminus); also: C-terminal thioamide (CSNH2)
B20: [D-Tyr1,Pya(2)6,Arg(Me)9]MS10 (peptide)
peptide: YNWNSXGLRF
modifications: D-Tyr1; Pya(2)6; Arg(Me)9; C-terminal amide
notes: also called Compound No. 281
B21: [6Ψ7,NHCO,D-Tyr1,Arg(Me)9]MS10 (peptide)
peptide: [dY]NWNSFGL[Arg(Me)]F-NH2
modifications: also: bond 6-7 CONH replaced by NHCO (reversed)
B22: [D-Tyr1,D-Asn2,Pya(4)3,AzaGly7,Arg(Me)9,Phe(4F)10]MS10 (peptide)
peptide: [dY][dN][4Pal]NSF[azaGly]L[Arg(Me)][Phe(4-F)]-NH2
modifications: N-terminus assumed
SMILES: CNC(=N)NCCC[C@H](NC(=O)[C@H](CC(C)C)NC(=O)NNC(=O)[C@H](Cc1ccccc1)NC(=O)[C@H](CO)NC(=O)[C@H](CC(N)=O)NC(=O)[C@H](Cc1ccncc1)NC(=O)[C@@H](CC(N)=O)NC(=O)[C@H](N)Cc1ccc(O)cc1)C(=O)N[C@@H](Cc1ccc(F)cc1)C(N)=O
notes: also called Compound No. 317
B23: [D-Pya(3)1,D-Asn2,Cha3,AzaGly7,Arg(Me)9]MS10 (peptide)
peptide: [d3Pal][dN][Cha]NSF[azaGly]L[Arg(Me)]F-NH2
modifications: N-terminus assumed
SMILES: CNC(=N)NCCC[C@H](NC(=O)[C@H](CC(C)C)NC(=O)NNC(=O)[C@H](Cc1ccccc1)NC(=O)[C@H](CO)NC(=O)[C@H](CC(N)=O)NC(=O)[C@H](CC1CCCCC1)NC(=O)[C@@H](CC(N)=O)NC(=O)[C@H](N)Cc1cccnc1)C(=O)N[C@@H](Cc1ccccc1)C(N)=O
notes: also called Compound No. 290
B24: [D-Pya(3)1,D-Tyr2,Cha3,AzaGly7,Arg(Me)9]MS10 (peptide)
peptide: [d3Pal][dY][Cha]NSF[azaGly]L[Arg(Me)]F-NH2
modifications: N-terminus assumed
SMILES: CNC(=N)NCCC[C@H](NC(=O)[C@H](CC(C)C)NC(=O)NNC(=O)[C@H](Cc1ccccc1)NC(=O)[C@H](CO)NC(=O)[C@H](CC(N)=O)NC(=O)[C@H](CC1CCCCC1)NC(=O)[C@@H](Cc1ccc(O)cc1)NC(=O)[C@H](N)Cc1cccnc1)C(=O)N[C@@H](Cc1ccccc1)C(N)=O
notes: also called Compound No. 291
B25: des(1-2)-Acetyl-[AzaGly7,Arg(Me)9]MS10 (peptide)
peptide: Ac-WNSF[azaGly]L[Arg(Me)]F-NH2
SMILES: CNC(=N)NCCC[C@H](NC(=O)[C@H](CC(C)C)NC(=O)NNC(=O)[C@H](Cc1ccccc1)NC(=O)[C@H](CO)NC(=O)[C@H](CC(N)=O)NC(=O)[C@H](Cc1c[nH]c2ccccc12)NC(C)=O)C(=O)N[C@@H](Cc1ccccc1)C(N)=O
notes: also called Compound No. 272

Tests used:
[1] = target: T1, human OT7T175 (metastin receptor) (human, UniProt Q969F8 1-398); experiment: cell-based or functional assay
T1 sequence (Q969F8 whole entry L364H): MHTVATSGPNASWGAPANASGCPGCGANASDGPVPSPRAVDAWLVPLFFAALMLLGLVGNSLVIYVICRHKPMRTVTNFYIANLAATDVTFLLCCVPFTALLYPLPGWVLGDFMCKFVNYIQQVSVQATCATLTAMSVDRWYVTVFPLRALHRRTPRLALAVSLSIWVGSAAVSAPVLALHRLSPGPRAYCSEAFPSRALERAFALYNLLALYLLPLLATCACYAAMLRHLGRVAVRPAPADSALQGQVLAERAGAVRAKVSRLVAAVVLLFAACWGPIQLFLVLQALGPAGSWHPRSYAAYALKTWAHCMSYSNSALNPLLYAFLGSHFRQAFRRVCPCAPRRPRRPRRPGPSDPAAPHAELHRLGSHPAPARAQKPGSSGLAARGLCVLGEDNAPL

[2] = target: T1, human OT7T175 (metastin receptor); experiment: competition with Cy-5 metastin (40-54) on hOT7T175-CHO cells, FMAT
Method: hOT7T175-Expressed CHO cells were cultured in MEM-α medium (nucleic acid-free) containing 10% dialyzed serum. The medium was removed and the adhered cells were washed with PBS. Then, PBS containing 5 mM EDTA was added and the cells were scraped from a flask with a cell scraper.
To each well of a 96-Well Black Clear Bottom Microplate (Applied Biosystems, Inc.), 10 μL of assay buffer containing 1% dimethylsulfoxide was added to examine total binding, 10 μL of 10 μM non-labeled peptide (having the same amino acid sequence as that of labeled one) solution diluted with assay buffer to examine non-specific binding, and 10 μL of a test compound diluted with assay buffer to examine a binding inhibition activity of the test compound, and furthermore, 90 μL each of the cell suspension was dispensed to each well. […] Specific binding is calculated as non-specific binding subtracted from total binding. The binding inhibition activity of a test compound is shown by a ratio of the value obtained by subtracting a measured value in presence of a test compound from the total binding to the specific binding.

[3] = target: T1, human OT7T175 (metastin receptor); experiment: cell-based or functional assay; remark: listed apart in the source

Row | Binder | Ca ion level-increasing activity (FLIPR) [1] | IC50 [2] [nM] | Ca ion level-increasing activity (FLIPR, 40 s) [3] [EC50/MS10 EC50]
1 | B1 | 1 x Metastin (1-54) | 120 | 
2 | B2 | 2 x Metastin (1-54) | 90 | 
3 | B3 | 3 x Metastin (1-54) | 5 | 
4 | B4 | 2 x Metastin (1-54) | 7.7 | 
5 | B5 | 2 x Metastin (1-54) |  | 4.9
6 | B6 | 1 x Metastin (1-54) | 15 | 
7 | B7 |  | 17 | 4.9
8 | B8 |  | 120 | 6.7
9 | B9 | 5 x Metastin (1-54) | 300 | 
10 | B10 | 1 x Metastin (1-54) | 280 | 
11 | B11 | 2 x Metastin (1-54) | 4.4 | 
12 | B12 | 2 x Metastin (1-54) | 54 | 
13 | B13 |  | 350 | 2.6
14 | B14 |  |  | 2.7
15 | B15 |  | 0.99 | 2.9
16 | B16 | 2 x Metastin (1-54) | 110 | 
17 | B17 |  | 4.1 | 1
18 | B18 | 2 x Metastin (1-54) | 360 | 
19 | B19 |  |  | 1.5
20 | B20 | 0.5 x Metastin (1-54) | 230 | 
21 | B21 | 3 x Metastin (1-54) |  | 3.1
22 | B22 | 1 x Metastin (1-54) | 2.1 | 
23 | B23 | 1 x Metastin (1-54) | 1.4 | 
24 | B24 | 2 x Metastin (1-54) | 0.41 | 
25 | B25 | 2 x Metastin (1-54) | 540 | 
